In patent publication US20230257479A1 (Genmab, published 2023):

T1: human 5T4ECDHis (mature protein of SEQ ID NO: 99) (human, UniProt Q13641 32-355)
T1 construct: ECD of human 5T4 (aa 1-355 of Uniprot Q13641) with C-terminal His tag; residues 1-31 are the signal peptide; also called ECD of human 5T4 with a C-terminal His tag
T1 sequence: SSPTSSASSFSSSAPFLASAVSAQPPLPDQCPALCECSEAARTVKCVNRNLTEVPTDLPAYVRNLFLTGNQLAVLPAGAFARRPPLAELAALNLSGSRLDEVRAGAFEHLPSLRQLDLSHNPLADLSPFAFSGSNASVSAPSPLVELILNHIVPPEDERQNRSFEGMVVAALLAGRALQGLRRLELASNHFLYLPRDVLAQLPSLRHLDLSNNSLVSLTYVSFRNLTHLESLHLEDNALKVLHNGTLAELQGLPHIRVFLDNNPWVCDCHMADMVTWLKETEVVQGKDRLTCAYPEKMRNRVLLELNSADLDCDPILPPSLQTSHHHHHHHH

T2: full length cynomolgus monkey 5T4 on transfected HEK-293 cells (cynomolgus monkey, UniProt Q4R8Y9 35-420)
T2 construct: Uniprot Q4R8Y9; residues 1-34 are the signal peptide; also called cynomolgus 5T4
T2 sequence: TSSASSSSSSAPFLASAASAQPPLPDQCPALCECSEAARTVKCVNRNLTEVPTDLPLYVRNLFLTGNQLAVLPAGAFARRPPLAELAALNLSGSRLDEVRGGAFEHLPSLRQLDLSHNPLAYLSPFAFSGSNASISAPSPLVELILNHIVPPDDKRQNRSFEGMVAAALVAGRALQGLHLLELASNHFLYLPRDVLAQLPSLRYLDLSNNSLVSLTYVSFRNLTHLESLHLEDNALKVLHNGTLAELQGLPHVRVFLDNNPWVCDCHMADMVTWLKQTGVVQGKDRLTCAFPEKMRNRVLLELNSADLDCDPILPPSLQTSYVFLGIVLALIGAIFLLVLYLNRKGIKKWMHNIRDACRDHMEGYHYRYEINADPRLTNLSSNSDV

T3: full length human 5T4 (SEQ ID NO: 1) on cells (human, UniProt Q13641 32-420)
T3 construct: Uniprot Q13641; residues 1-31 are the signal peptide; Used both for transfected HEK-293 cells and for 5T4-expressing human tumor cell lines
T3 sequence: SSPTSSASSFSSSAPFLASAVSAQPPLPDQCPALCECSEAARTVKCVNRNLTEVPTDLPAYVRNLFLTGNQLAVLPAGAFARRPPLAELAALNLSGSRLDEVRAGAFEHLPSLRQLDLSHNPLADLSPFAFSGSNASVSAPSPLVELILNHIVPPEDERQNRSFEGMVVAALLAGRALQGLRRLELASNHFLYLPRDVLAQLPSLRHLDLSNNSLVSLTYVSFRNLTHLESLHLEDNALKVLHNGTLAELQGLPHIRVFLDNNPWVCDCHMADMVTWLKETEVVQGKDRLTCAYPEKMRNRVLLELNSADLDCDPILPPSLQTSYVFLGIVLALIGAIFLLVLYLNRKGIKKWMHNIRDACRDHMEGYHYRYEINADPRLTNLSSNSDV


Assays:
[1] = molecular target: T1, human 5T4ECDHis (mature protein of SEQ …); assay: BLI cross-block; competitor (immobilised): IgG1-5T4-A3-F405L
Protocol: Antibody cross-block analysis (epitope binning) was performed using biolayer interferometry on an Octet HTX instrument (ForteBio). 5T4 antibodies (20 µg/mL in 10 mM sodium acetate buffer pH 6.0, ForteBio) were immobilized on Amine-Reactive 2nd Generation (AR2G) biosensors (ForteBio) according to the manufacturer’s instructions. […] Next, the association response of a second 5T4 antibody (10 µg/mL) was determined for 500 s. Biosensors were regenerated by 3 times 5 s exposure to 10 mM glycine pH 2.5 followed by Sample Diluent, and the measurement was repeated with a new set of second 5T4 antibodies starting from the baseline step. Each biosensor was used four times. Measurements were performed at 30° C. using a shaker speed of 1000 rpm. Data were analyzed using Data Analysis Software v9.0.0.12 (ForteBio). The Y-axis was aligned to the association step and Savitzky-Golay filtering was applied. The response of Sample Diluent during the association step was subtracted from the association response of the second antibody in order to correct for the dissociation of 5T4ECDHis from the immobilized antibody. The corrected association responses were plotted in a matrix format. In general, responses > 0.1 nm were considered non-blocking antibody pairs (white), while responses between -0.1 and 0.1 nm were considered to be blocking antibody pairs (dark grey). […] In some cases, the data curves needed visual inspection by an expert to assign blocking, non-blocking or displacement properties to antibody pairs.

[2] = molecular target: T1, human 5T4ECDHis (mature protein of SEQ …); assay: BLI cross-block; competitor (immobilised): IgG1-5T4-127-FEAR
Protocol: (§1) Antibody cross-block analysis (epitope binning) was performed using biolayer interferometry on an Octet HTX instrument (ForteBio). 5T4 antibodies (20 µg/mL in 10 mM sodium acetate buffer pH 6.0, ForteBio) were immobilized on Amine-Reactive 2nd Generation (AR2G) biosensors (ForteBio) according to the manufacturer’s instructions. […] Next, the association response of a second 5T4 antibody (10 µg/mL) was determined for 500 s. Biosensors were regenerated by 3 times 5 s exposure to 10 mM glycine pH 2.5 followed by Sample Diluent, and the measurement was repeated with a new set of second 5T4 antibodies starting from the baseline step. Each biosensor was used four times. Measurements were performed at 30° C. using a shaker speed of 1000 rpm. Data were analyzed using Data Analysis Software v9.0.0.12 (ForteBio). The Y-axis was aligned to the association step and Savitzky-Golay filtering was applied. The response of Sample Diluent during the association step was subtracted from the association response of the second antibody in order to correct for the dissociation of 5T4ECDHis from the immobilized antibody. […] In general, responses > 0.1 nm were considered non-blocking antibody pairs (white), while responses between -0.1 and 0.1 nm were considered to be blocking antibody pairs (dark grey). […] In some cases, the data curves needed visual inspection by an expert to assign blocking, non-blocking or displacement properties to antibody pairs.

[3] = molecular target: T1, human 5T4ECDHis (mature protein of SEQ …); assay: BLI cross-block; competitor (immobilised): IgG1-5T4-H8-FEAR
[4] = molecular target: T1, human 5T4ECDHis (mature protein of SEQ …); assay: BLI cross-block; competitor (immobilised): IgG1-5T4-106-FEAR
Protocol: as §1

[5] = molecular target: T1, human 5T4ECDHis (mature protein of SEQ …); assay: BLI cross-block; competitor (immobilised): IgG1-5T4-076-FEAR
Protocol: as §1

[6] = molecular target: T1, human 5T4ECDHis (mature protein of SEQ …); assay: BLI cross-block; competitor (immobilised): IgG1-5T4-A1-F405L
Protocol: as §1

[7] = molecular target: T1, human 5T4ECDHis (mature protein of SEQ …); assay: BLI cross-block; competitor (immobilised): IgG1-5T4-207-FEAR
[8] = molecular target: T1, human 5T4ECDHis (mature protein of SEQ …); assay: BLI cross-block; competitor (immobilised): IgG1-5T4-085-FEAR
Protocol: as §1

[9] = molecular target: T1, human 5T4ECDHis (mature protein of SEQ …); assay: BLI cross-block; competitor (immobilised): IgG1-5T4-059-FEAR
Protocol: as §1

[10] = molecular target: T1, human 5T4ECDHis (mature protein of SEQ …); assay: BLI cross-block; competitor (immobilised): IgG1-5T4-226-FEAR
[11] = molecular target: T2, full length cynomolgus monkey 5T4 on …; assay: flow cytometry, HEK-293 cells transfected with cynomolgus monkey 5T4, PE secondary [II)G]
[12] = molecular target: T3, full length human 5T4 (SEQ ID NO: 1) on …; assay: flow cytometry, HEK-293 cells transfected with human 5T4, FITC secondary [I)D]
Protocol: Experiments were performed in technical duplicate. After washing twice in staining buffer, cells were incubated in 50 µL secondary antibody at 4° C. for 30 min. […] Cells were washed twice in staining buffer, re-suspended in 30 µL staining buffer and analyzed on an iQue Screener (Intellicyt Corporation, USA). Binding curves were analyzed using non-linear regression (sigmoidal dose-response with variable slope) using GraphPad Prism V7.02 software (GraphPad Software, San Diego, CA, USA).

[13] = molecular target: T1, human 5T4ECDHis (mature protein of SEQ …); assay: BLI, antibody on anti-human IgG Fc Capture biosensor, antigen in solution
Protocol: Affinities of the 5T4 antibodies for recombinant 5T4 protein were determined using label-free biolayer interferometry on an Octet HTX instrument (ForteBio, Portsmouth, UK). 5T4 antibodies (1 µg/mL) were immobilized for 600 seconds on anti-human IgG Fc Capture biosensors (ForteBio). […] Data were analyzed with Data Analysis Software v9.0.0.12 (ForteBio). Values of reference wells containing only Sample Diluent during the association and dissociation steps were subtracted from values of wells containing antigen, for each antibody separately. The Y-axis was aligned to the last 10 s of the baseline and Interstep Correction alignment to dissociation as well as Savitzky-Golay filtering was applied. Responses < 0.05 nm were excluded from analysis. The data were fitted using the 1:1 model and a global full fit with 200 s association time and 1000 s or 50 s dissociation time as Window of Interest. The fit with the full dissociation time (1000 s) as Window of Interest was used by default.

[14] = molecular target: T3, full length human 5T4 (SEQ ID NO: 1) on …; assay: flow cytometry, HEK-293 cells transfected with human 5T4, PE secondary [II)E]
[15] = molecular target: T2, full length cynomolgus monkey 5T4 on …; assay: flow cytometry, HEK-293 cells transfected with cynomolgus monkey 5T4, PE secondary [II)E]
[16] = molecular target: T3, full length human 5T4 (SEQ ID NO: 1) on …; assay: flow cytometry, HeLa cells, PE secondary [II)H]
Protocol: Mono- and bivalent binding of 5T4 antibodies to HeLa cells was determined by flow cytometry. Cells were incubated with increasing concentrations of antibodies. After secondary labelling with Phycoerythrin (PE)-conjugated goat-anti-human IgG F(ab′)2, the mean fluorescence intensity (MFI) was determined by flow cytometry.
After washing twice in staining buffer, cells were incubated in 50 µL secondary antibody at 4° C. for 30 min. […] Next, cells were washed twice in staining buffer, re-suspended in 120 µL staining buffer and analyzed on a BD LSRFortessa FACS (BD Biosciences, USA). Binding curves were analyzed using non-linear regression (sigmoidal dose-response with variable slope) using GraphPad Prism V7.02 software (GraphPad Software, San Diego, CA, USA).

[17] = molecular target: T2, full length cynomolgus monkey 5T4 on …; assay: flow cytometry, HEK-293 cells transfected with cynomolgus monkey 5T4, PE secondary [II)I]

Binder | corrected association response [1] [nm] | corrected association response [2] [nm] | corrected association response [3] [nm] | corrected association response [4] [nm] | corrected association response [5] [nm] | corrected association response [6] [nm] | corrected association response [7] [nm] | corrected association response [8] [nm] | corrected association response [9] [nm] | corrected association response [10] [nm] | further results
IgG1-5T4-A1-F405L (antibody, V domains shown, Variable region of A1 of WO2007106744 in a human IgG1 backbone with F405L; also called surrogate A1 antibody) VH: QIQLVQSGPELKKPGETVKISCKASGYTFTNFGMNWVKQGPGEGLKWMGWINTNTGEPRYAEEFKGRFAFSLETTASTAYLQINNLKNEDTATYFCARDWDGAYFFDYWGQGTTLTVSS VL: SIVMTQTPKFLLVSAGDRVTITCKASQSVSNDVAWYQQKPGQSPKLLINFATNRYTGVPNRFTGSGYGTDFTFTISTVQAEDLALYFCQQDYSSPWTFGGGTKLEIK | 0.69 | 0.15 | 0.64 | 0.79 | 0.04 | -0.01 | 1.29 | 0.07 | 0.96 | 1.56 | –
bsIgG1-huCD3-H101G-FEALx5T4-127-FEAR (bispecific antibody, Fab-arm exchange product) heavy: not shown light: not shown VH: EVQLLESRGGLVQPGGSLRLSCAASGFTFSSYAMSWVRQAPGKGLEWVSTISGSGGSTYYADSVKGRFTISRDNSKKTLYLQMNSLRAEDTAVYYCAKDWGSGSYPAEYFQHWGQGTLVTVSS VL: EIVLTQSPATLSLSPGERATLSCRASQSVSSYLAWYQQKPGQAPRLLIYDASNRATGIPARFSGSGSGTDFTLTISSLEPEDFAVYYCQQRSNWLMYTFGQGTKLEIK | – | – | – | – | – | – | – | – | – | – | EC50 (read off the curve) [11]: ~0.1 µg/mL
IgG1-5T4-H8-FEAR (antibody, V domains shown, Based on 5T4 antibody H8 from Wyeth (WO 2007/106744); IgG1 with L234F, L235E, D265A, K409R (FEAR); also called IgG1-5T4-HS-FEAR; IgG1-5T4-H8-FEAR-FITC) VH: EVQLQQSGPDLVKPGASVKISCKASGYSFTGYYMHWVKQSHGKSLEWIGRINPNNGVTLYNQKFKDKAILTVDKSSTTAYMELRSLTSEDSAVYYCARSTMITNYVMDYWGQVTSVTVSS VL: SIVMTQTPTFLLVSAGDRVTITCKASQSVSNDVAWYQQKPGQSPTLLISYTSSRYAGVPDRFIGSGYGTDFTFTISTLQAEDLAVYFCQQDYNSPPTFGGGTKLEIK | 0.5 | -0.02 | 0 | -0.02 | 0 | 0.89 | -0.01 | -0.01 | 0.01 | -0.01 | EC50 (read off the curve) [12]: ~0.1 µg/mL; Kd [13]: 1.3 nM; koff [13]: 0.00029 s⁻¹; kon [13]: 220000 M⁻¹ s⁻¹
bsIgG1-huCD3-H101G-FEALx5T4-076-FEAR (bispecific antibody, Fab-arm exchange product) heavy: not shown light: not shown VH: QVQLVQSGAEVKKPGASVKVSCKASGYTFTSYGISWVRQAPGQGLEWMGWISAYNGNTNYAQKLQGRVTMTTDTSTRTAYMELRSLRSDDTAVYYCARDPGYFDWLYGDYWGQGTLVTVSS VL: AIQLTQSPSSLSASVGDRVTITCRASQGISSALAWYQQKPGKAPKLLIYDASSLESGVPSRFSGSGSGTDFTLTISSLQPEDFATYYCQQFNSYPRTFGQGTKVEIK | – | – | – | – | – | – | – | – | – | – | binding result [14]: binds; EC50 (read off the curve) [15]: ~0.4 µg/mL
IgG1-5T4-076-FEAR (antibody, V domains shown, Monospecific, bivalent human IgG1 kappa with L234F, L235E, D265A, K409R (FEAR)) VH: QVQLVQSGAEVKKPGASVKVSCKASGYTFTSYGISWVRQAPGQGLEWMGWISAYNGNTNYAQKLQGRVTMTTDTSTRTAYMELRSLRSDDTAVYYCARDPGYFDWLYGDYWGQGTLVTVSS VL: AIQLTQSPSSLSASVGDRVTITCRASQGISSALAWYQQKPGKAPKLLIYDASSLESGVPSRFSGSGSGTDFTLTISSLQPEDFATYYCQQFNSYPRTFGQGTKVEIK | 0 | -0.02 | -0.02 | -0.03 | -0.01 | 0.36 | 1.22 | -0.01 | 0 | 1.47 | EC50 (read off the curve) [14]: ~0.3 µg/mL; EC50 (read off the curve) [15]: ~0.008 µg/mL
bsIgG1-huCD3-H101G-FEALx5T4-A3-FEAR (bispecific antibody, Fab-arm exchange product) heavy: not shown light: not shown VH: EVQLVESGGGLVQPKGSLKLSCAASGFTFNTYAMNWVRQAPGKGLEWVARIRSKSNNYATYYADSVKDRFTISRDDSQSMLYLQMNNLKTEDTAMYYCVRQWDYDVRAMNYWGQGTSVTVSS VL: DIVMTQSHIFMSTSVGDRVSITCKASQDVDTAVAWYQQKPGQSPKLLIYWASTRLTGVPDRFTGSGSGTDFTLTISNVQSEDLADYFCQQYSSYPYTFGGGTKLEIK | – | – | – | – | – | – | – | – | – | – | binding result [16]: binds; binding result [17]: binds
IgG1-5T4-A3-F405L (antibody, V domains shown, Variable region of A3 of WO2007106744 in a human IgG1 backbone with F405L; also called surrogate A3 antibody) VH: EVQLVESGGGLVQPKGSLKLSCAASGFTFNTYAMNWVRQAPGKGLEWVARIRSKSNNYATYYADSVKDRFTISRDDSQSMLYLQMNNLKTEDTAMYYCVRQWDYDVRAMNYWGQGTSVTVSS VL: DIVMTQSHIFMSTSVGDRVSITCKASQDVDTAVAWYQQKPGQSPKLLIYWASTRLTGVPDRFTGSGSGTDFTLTISNVQSEDLADYFCQQYSSYPYTFGGGTKLEIK | 0.01 | -0.01 | 0.49 | 0.56 | 0 | 0.76 | – | -0.01 | – | – | –
IgG1-5T4-A3-FEAR (antibody, V domains shown, Based on A3 from Wyeth; IgG1 with L234F, L235E, D265A, K409R (FEAR)) VH: EVQLVESGGGLVQPKGSLKLSCAASGFTFNTYAMNWVRQAPGKGLEWVARIRSKSNNYATYYADSVKDRFTISRDDSQSMLYLQMNNLKTEDTAMYYCVRQWDYDVRAMNYWGQGTSVTVSS VL: DIVMTQSHIFMSTSVGDRVSITCKASQDVDTAVAWYQQKPGQSPKLLIYWASTRLTGVPDRFTGSGSGTDFTLTISNVQSEDLADYFCQQYSSYPYTFGGGTKLEIK | – | – | – | – | – | – | – | – | – | – | binding result [16]: binds; EC50 (read off the curve) [17]: ~0.1 µg/mL
